In ChEMBL document CHEMBL1156801, “Using NMR solvent water relaxation to investigate metalloenzyme-ligand binding interactions” (J Med Chem, 2010):

Columns and labels:
[1] = substrate: CC[C@H](C)[C@H](NC(=O)[C@H](Cc1ccc(O)cc1)NC(=O)[C@@H]1CCCN1C(=O)[C@H](C)NC(=O)[C@H](CC(C)C)NC(=O)[C@H](CCSC)NC(=O)[C@H](CCC(=O)O)NC(=O)[C@H](CC(C)C)NC(=O)[C@H](CC(=O)O)NC(=O)[C@H](CC(C)C)NC(=O)[C@@H](N)CC(=O)O)C(=O)N1CCC[C@H]1C(=O)N[C@@H](CCSC)C(=O)N[C@@H](CC(=O)O)C(=O)N[C@@H](CC(=O)O)C(=O)N[C@@H](CC(=O)O)C(=O)N[C@@H](Cc1ccccc1)C(=O)N[C@@H](CCC(N)=O)C(=O)N[C@@H](CC(C)C)C(=O)O; assay: (§1) Hydroxylation activity of human PHD2
[2] = substrate: CC[C@H](C)[C@H](NC(=O)[C@@H](NC(=O)[C@H](CC(=O)O)NC(=O)CNC(=O)[C@H](C)NC(=O)[C@H](C)NC(=O)[C@@H]1CCCN1C(=O)[C@H](C)NC(=O)[C@H](CC(C)C)NC(=O)[C@H](CC(C)C)NC(=O)[C@@H](NC(=O)[C@H](CC(C)C)NC(=O)[C@H](C)NC(=O)[C@@H](N)CC(=O)O)[C@@H](C)O)[C@@H](C)O)C(=O)N[C@H](C(=O)N[C@@H](CO)C(=O)N[C@@H](CC(C)C)C(=O)N[C@@H](CC(=O)O)C(=O)N[C@@H](Cc1ccccc1)C(=O)O)[C@@H](C)CC; assay: as §1

B1: Egl nine homolog 1 (Homo sapiens), Q9GZT9 (protein)
chain: MANDSGGPGGPSPSERDRQYCELCGKMENLLRCSRCRSSFYCCKEHQRQDWKKHKLVCQGSEGALGHGVGPHQHSGPAPPAAVPPPRAGAREPRKAAARRDNASGDAAKGKVKAKPPADPAAAASPCRAAAGGQGSAVAAEAEPGKEEPPARSSLFQEKANLYPPSNTPGDALSPGGGLRPNGQTKPLPALKLALEYIVPCMNKHGICVVDDFLGKETGQQIGDEVRALHDTGKFTDGQLVSQKSDSSKDIRGDKITWIEGKEPGCETIGLLMSSMDDLIRHCNGKLGSYKINGRTKAMVACYPGNGTGYVRHVDNPNGDGRCVTCIYYLNKDWDAKVSGGILRIFPEGKAQFADIEPKFDRLLFFWSDRRNPHEVQPAYATRYAITVWYFDADERARAKVKYLTGEKGVRVELNKPSDSVGKDVF
Protein B1 has a Km [1] of 37 µM and a Km [2] of 44 µM.
